Starred links: 1 amine or outer side, 2 acyl side, 3 side chain; linkers in the order of their positions; H or OH if unused. Non-standard residues stand in square brackets, D forms with d. Groups on a side chain read outwards from the residue. Primed or numbered codes have the meaning given here. No end group written: not given here. *: point of attachment. γGlu = O=C(O)[C@H](CCC(=O)[*:2])N[*:1]; Palmitoyl = CCCCCCCCCCCCCCCC(=O)*; αMeF = C[C@](N)(Cc1ccccc1)C(=O)O; αMeK = C[C@](N)(CCCCN)C(=O)O; αMeS = C[C@](N)(CO)C(=O)O; PEG2′ = not defined here; Aib = CC(C)(N)C(=O)O
T1: glucose-dependent insulinotropic peptide (gastric inhibitory polypeptide) receptor (GIPR), primary cAMP assay (human, UniProt P48546 22-466)
T1 sequence (looked up): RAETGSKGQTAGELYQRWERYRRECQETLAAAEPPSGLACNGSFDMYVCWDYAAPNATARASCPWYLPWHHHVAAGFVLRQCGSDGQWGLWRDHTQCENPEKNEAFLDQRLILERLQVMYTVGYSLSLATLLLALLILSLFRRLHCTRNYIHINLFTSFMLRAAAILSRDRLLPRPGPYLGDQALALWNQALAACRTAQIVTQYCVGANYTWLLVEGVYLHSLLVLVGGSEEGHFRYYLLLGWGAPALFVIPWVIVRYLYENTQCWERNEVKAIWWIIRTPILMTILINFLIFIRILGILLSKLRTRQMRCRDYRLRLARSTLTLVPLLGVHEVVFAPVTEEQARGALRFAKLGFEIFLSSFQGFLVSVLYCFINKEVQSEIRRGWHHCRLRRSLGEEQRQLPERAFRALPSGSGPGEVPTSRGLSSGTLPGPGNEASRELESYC

B1: SEQ ID NO: 267 (peptide)
peptide: H[Aib]EGS[αMeF]TSDV[αMeS]SK([PEG2′-PEG2′-γGlu-Palmitoyl])LEGEAA[αMeK]EFIAWK([PEG2′-PEG2′-γGlu-Palmitoyl])VEGG-NH2
B2: SEQ ID NO: 245 (peptide)
peptide: H[Aib]EGTFTSDVSK([PEG2′-PEG2′-γGlu-Palmitoyl])FLEGEAAEEFIK([PEG2′-PEG2′-γGlu-Palmitoyl])FVVEGG-NH2
B3: SEQ ID NO: 261 (peptide)
peptide: H[Aib]EGS[αMeF]TSDK([PEG2′-PEG2′-γGlu-Palmitoyl])SSYLEGEAA[αMeK]EFIAWK([PEG2′-PEG2′-γGlu-Palmitoyl])VEGG-NH2
B4: SEQ ID NO: 266 (peptide)
peptide: H[Aib]EGS[αMeF]TSDV[αMeS]SK([PEG2′-PEG2′-γGlu-Palmitoyl])LEGEAA[αMeK]EFIAK([PEG2′-PEG2′-γGlu-Palmitoyl])VVEGG-NH2
B5: SEQ ID NO: 271 (peptide)
peptide: H[Aib]EGS[αMeF]TSDV[αMeS]SYK([PEG2′-PEG2′-γGlu-Palmitoyl])EGEAA[αMeK]EFIK([PEG2′-PEG2′-γGlu-Palmitoyl])WVVEGG-NH2
B6: SEQ ID NO: 255 (peptide)
peptide: H[Aib]EGS[αMeF]TSDVSK([PEG2′-PEG2′-γGlu-Palmitoyl])YLEGEAA[αMeK]EFIAWK([PEG2′-PEG2′-γGlu-Palmitoyl])VEGG-NH2
B7: SEQ ID NO: 273 (peptide)
peptide: H[Aib]EGS[αMeF]TSDV[αMeS]SYK([PEG2′-PEG2′-γGlu-Palmitoyl])EGEAA[αMeK]EFIAWK([PEG2′-PEG2′-γGlu-Palmitoyl])VEGG-NH2
B8: SEQ ID NO: 259 (peptide)
peptide: H[Aib]EGS[αMeF]TSDK([PEG2′-PEG2′-γGlu-Palmitoyl])SSYLEGEAA[αMeK]EFIK([PEG2′-PEG2′-γGlu-Palmitoyl])WVVEGG-NH2

Biological target: glucagon receptor (GCGR), primary cAMP assay (human, UniProt P47871 26-477)
Assay: cell-based or functional assay

Chain of glucagon receptor (GCGR), primary cAMP assay (P47871 26-477): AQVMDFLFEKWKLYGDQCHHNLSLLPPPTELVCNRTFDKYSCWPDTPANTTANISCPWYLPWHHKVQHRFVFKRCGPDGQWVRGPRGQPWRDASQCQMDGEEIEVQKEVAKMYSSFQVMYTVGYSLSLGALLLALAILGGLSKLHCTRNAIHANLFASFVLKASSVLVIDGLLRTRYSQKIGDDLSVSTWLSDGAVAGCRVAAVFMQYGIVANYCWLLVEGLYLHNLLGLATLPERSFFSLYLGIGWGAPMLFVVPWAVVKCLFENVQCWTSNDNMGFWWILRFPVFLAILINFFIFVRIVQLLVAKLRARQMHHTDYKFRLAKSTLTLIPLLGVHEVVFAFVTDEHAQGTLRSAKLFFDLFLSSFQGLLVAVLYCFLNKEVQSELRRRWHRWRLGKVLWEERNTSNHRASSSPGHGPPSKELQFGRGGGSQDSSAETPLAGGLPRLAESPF

| Primary assay EC50 (cAMP), n1 [nM] | Primary assay EC50 (cAMP), n2 [nM] | Binder |
| --- | --- | --- |
| 21.7 | 21.7 | B1 |
| 21.6 | 21.6 | B2 |
| 23 | 23 | B3 |
| 22.2 | 22.2 | B4 |
| 21.4 | 21.4 | B5 |
| 21.5 | 21.5 | B6 |
| 21.5 | 21.5 | B7 |
| 21.4 | 21.4 | B8 |

Biological target: T1, glucose-dependent insulinotropic …
Assay: cell-based or functional assay

| Primary assay EC50 (cAMP), n1 [nM] | Primary assay EC50 (cAMP), n2 [nM] | Binder |
| --- | --- | --- |
| 21.7 | 21.7 | B1 |
| 21.6 | 21.6 | B2 |
| 23 | 23 | B3 |
| 22.2 | 22.2 | B4 |
| 21.4 | 21.4 | B5 |
| 21.5 | 21.5 | B6 |
| 21.5 | 21.5 | B7 |
| 21.4 | 21.4 | B8 |

Biological target: GLP-1 receptor (GLP-1R), primary cAMP assay (human, UniProt P43220 24-463)
Assay: cell-based or functional assay

| Primary assay EC50 (cAMP) Mean [pM] | Primary assay EC50 (cAMP), n1 [pM] | Primary assay EC50 (cAMP), n2 [pM] | Binder |
| --- | --- | --- | --- |
| 569 | 628 | 510 | B1 |
| 11200 | 12300 | 10200 | B2 |
| 418 | 414 | 422 | B3 |
| 478 | 400 | 557 | B4 |
| 820 | 891 | 750 | B5 |
| 462 | 532 | 393 | B6 |
| 762 | 741 | 783 | B7 |
| 313 | 339 | 287 | B8 |

Source: patent publication US20200079833A1 (AstraZeneca / MedImmune, published 2020)
